Assay results from patent US20200347139A1 (INHIBRX BIOSCIENCES, published 2020).

What was measured:
[1] = biological target: T1, mFc-CLEC12a-ECD (human); test: BLI, mFc-CLEC12a-ECD captured on anti-mFc sensors, 100 nM sdAb as first sdAb
T1 construct: It was immobilized on anti-mFc capture sensors for BLI; also called CLEC12a antigen
T1 chain: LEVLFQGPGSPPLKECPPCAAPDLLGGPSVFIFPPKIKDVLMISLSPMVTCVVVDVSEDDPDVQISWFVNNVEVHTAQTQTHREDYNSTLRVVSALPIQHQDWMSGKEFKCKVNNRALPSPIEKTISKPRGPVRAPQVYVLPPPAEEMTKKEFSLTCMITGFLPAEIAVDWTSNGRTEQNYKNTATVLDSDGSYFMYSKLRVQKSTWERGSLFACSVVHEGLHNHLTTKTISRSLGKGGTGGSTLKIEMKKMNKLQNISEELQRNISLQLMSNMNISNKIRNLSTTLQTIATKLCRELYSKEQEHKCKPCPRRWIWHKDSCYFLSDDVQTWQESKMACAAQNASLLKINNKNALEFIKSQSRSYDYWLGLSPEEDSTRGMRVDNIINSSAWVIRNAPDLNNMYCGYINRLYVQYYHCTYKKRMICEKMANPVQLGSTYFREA
Description: The epitopes of single domain antibodies (sdAbs) that comprise VHH domains that bind CLEC12a were compared using Bio-Layer Interferometry. 7 μg/mL of mFc-CLEC12a-ECD (SEQ ID NO: 87) was immobilized on anti-mFc coated capture sensors. 100 nM of one sdAb was then loaded onto the CLEC12a antigen and allowed to come to equilibrium. The sensors were then transferred into 100 nM of a second sdAb.

[2] = biological target: T2, human CLEC12a expressed on transiently transfected HEK 293 cells (human, UniProt Q5QGZ9 1-265); test: flow cytometry on HEK 293 cells transfected with human CLEC12a; apparent Kd, one-site fit
T2 construct: also called CLL-1; CLL1
T2 sequence: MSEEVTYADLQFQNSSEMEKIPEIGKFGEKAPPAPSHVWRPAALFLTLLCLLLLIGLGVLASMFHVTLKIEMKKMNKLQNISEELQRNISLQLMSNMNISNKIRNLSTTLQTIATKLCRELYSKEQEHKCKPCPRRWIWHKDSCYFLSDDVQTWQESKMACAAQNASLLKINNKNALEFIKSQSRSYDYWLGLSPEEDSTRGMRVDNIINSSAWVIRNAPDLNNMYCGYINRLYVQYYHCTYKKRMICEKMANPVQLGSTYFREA
Description: Binding of sdAbs to human CLEC12a was assessed by flow cytometry. […] HEK 293 cells were transiently transfected with a plasmid encoding CLEC12a (UniProt Accession No. Q5QGZ9.3; SEQ ID NO: 1) and used as the positive cell line, and untransfected HEK 293 cells were used as CLEC12a-negative cells. Each cell type was plated at 30,000 cells/well in FACS buffer (PBS 1% BSA, 0.1% NaN₃ pH 7.4) on a 96-well round-bottom plate. The sdAbs were diluted in FACS buffer in a 3-fold, 11 point serial dilution. The sdAb dilutions were added to the plated cells, and assay plates were incubated for 30 minutes at 4° C. After washing twice in 150 μL of FACS buffer, cells in each well were resuspended in 100 μL of 1:2000 Alexa Fluor 647-conjugated Anti-Human IgG secondary diluted in FACS buffer and incubated at 4° C. for 30 minutes. The cells were washed twice more, then bound antibody was detected by flow cytometry.
Flow cytometric analysis was performed on an Intellicyte iQue Plus and fluorescence was plotted as median fluorescence intensity. The apparent affinity (Kd, nM) was determined using one site binding non-linear regression in PRISM graph software.

binding result [1]: binds | Kd [2]: 0.3 nM
B1: hzMB11v13 sdAb (VHH hzMB11v13 fused to human IgG1 xELL Fc) (Fc fusion)
chain: EVQLVESGGGEVQPGGSLRLSCAASGFLFSIYDMNWYRQAPGKEREWVAGITNNGYSTAYAESVKGRFTISRDNAKNTIYLQMSSLRAEDTAVYYCHADLTKAYDVEYAWGQGTLVTVDKTHTCPPCPAPGGPSVFLFPPKPKDTLMISRTPEVTCVVVDVSHEDPEVKFNWYVDGVEVHNAKTKPREEQYNSTYRVVSVLTVLHQDWLNGKEYKCKVSNKALPAPIEKTISKAKGQPREPQVYTLPPSRDELTKNQVSLTCLVKGFYPSDIAVEWESNGQPENNYKTTPPVLDSDGSFFLYSKLTVDKSRWQQGNVFSCSVMHEALHNHYTQKSLSLSPGK
notes: Humanized version of MB11; No linker is stated; also called hzMB11v13-IgG1
